Tests used:
[1] = biological target: T1, Thermococcus sp. DNA polymerase R671S/K677S/K712S R671S,K677S,K712S (Thermococcus sp.) (UniProt Q56366); test: EMSA; settings: EMSA as for Taq, 1x TAE with 2 mM EDTA
T1 sequence: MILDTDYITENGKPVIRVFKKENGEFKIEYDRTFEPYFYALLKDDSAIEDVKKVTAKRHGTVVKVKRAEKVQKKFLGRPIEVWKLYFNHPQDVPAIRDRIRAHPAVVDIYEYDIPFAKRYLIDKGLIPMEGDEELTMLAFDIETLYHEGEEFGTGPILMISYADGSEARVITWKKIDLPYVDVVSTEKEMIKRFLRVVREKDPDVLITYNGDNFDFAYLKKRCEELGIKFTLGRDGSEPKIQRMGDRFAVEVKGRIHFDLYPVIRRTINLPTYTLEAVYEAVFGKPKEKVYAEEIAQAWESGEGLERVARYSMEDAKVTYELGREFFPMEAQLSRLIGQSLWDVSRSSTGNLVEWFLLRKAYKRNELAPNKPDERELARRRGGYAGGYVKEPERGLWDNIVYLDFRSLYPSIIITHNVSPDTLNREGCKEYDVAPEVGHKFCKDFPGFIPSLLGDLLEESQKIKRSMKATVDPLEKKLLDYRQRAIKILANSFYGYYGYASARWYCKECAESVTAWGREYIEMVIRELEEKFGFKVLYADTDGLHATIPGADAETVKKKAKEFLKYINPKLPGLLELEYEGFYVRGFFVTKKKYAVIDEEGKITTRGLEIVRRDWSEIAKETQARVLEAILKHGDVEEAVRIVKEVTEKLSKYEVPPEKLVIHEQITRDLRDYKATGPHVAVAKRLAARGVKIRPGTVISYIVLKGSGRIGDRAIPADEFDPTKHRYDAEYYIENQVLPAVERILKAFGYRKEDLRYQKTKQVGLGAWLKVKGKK

[2] = biological target: Thermococcus sp. DNA polymerase R671E/K677E R671E,K677E (Thermococcus sp.) (UniProt Q56366); test: EMSA; settings: EMSA as for Taq, 1x TAE with 2 mM EDTA
[3] = biological target: Thermococcus sp. DNA polymerase (R671E/K677E/K712E)/N210D R671E,K677E,K712E,N210D (Thermococcus sp.) (UniProt Q56366); test: EMSA; settings: EMSA as for Taq, 1x TAE with 2 mM EDTA
[4] = biological target: Thermococcus sp. DNA polymerase (R671S/K677S/K712S)/N210D R671S,K677S,K712S,N210D (Thermococcus sp.) (UniProt Q56366); test: EMSA; settings: EMSA as for Taq, 1x TAE with 2 mM EDTA
[5] = biological target: Thermococcus sp. DNA polymerase R671E/K677E/K712E R671E,K677E,K712E (Thermococcus sp.) (UniProt Q56366); test: EMSA; settings: EMSA as for Taq, 1x TAE with 2 mM EDTA
[6] = biological target: T2, Thermococcus sp. DNA polymerase (Thermococcus sp.) (UniProt Q56366); test: EMSA; settings: EMSA as for Taq, 1x TAE with 2 mM EDTA
T2 sequence: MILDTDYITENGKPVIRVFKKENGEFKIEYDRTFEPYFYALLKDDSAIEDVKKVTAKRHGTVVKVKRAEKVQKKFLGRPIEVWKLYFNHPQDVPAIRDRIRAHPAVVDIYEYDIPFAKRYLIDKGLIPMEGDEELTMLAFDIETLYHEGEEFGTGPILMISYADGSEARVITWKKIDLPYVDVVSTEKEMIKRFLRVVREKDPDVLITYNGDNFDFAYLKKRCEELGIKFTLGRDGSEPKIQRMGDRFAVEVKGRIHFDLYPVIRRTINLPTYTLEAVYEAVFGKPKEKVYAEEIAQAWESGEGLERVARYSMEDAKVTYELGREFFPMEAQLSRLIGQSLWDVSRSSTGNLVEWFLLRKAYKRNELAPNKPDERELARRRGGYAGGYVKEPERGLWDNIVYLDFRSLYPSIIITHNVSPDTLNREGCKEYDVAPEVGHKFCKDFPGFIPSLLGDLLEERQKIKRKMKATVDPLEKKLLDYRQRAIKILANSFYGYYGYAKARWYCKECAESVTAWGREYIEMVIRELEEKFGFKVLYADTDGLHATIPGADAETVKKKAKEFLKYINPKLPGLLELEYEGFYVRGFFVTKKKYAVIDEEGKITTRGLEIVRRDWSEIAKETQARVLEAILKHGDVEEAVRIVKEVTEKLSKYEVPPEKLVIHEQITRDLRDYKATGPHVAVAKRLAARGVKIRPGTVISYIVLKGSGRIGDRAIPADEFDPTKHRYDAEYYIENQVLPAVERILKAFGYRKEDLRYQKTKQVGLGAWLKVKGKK

[7] = biological target: Taq DNA polymerase (I532T/R536C/K540C/H784C)/(R25S/Y81F/G187A) (UniProt P19821 P19821:1-832, I532T,R536C,K540C,H784C,R25S,Y81F,G187A); test: EMSA; 1x TAE with 2 mM EDTA, pH 8.3; above highest tested 1000 nM; settings: tags: Fermentas
Protocol: (§1) Affinity of Taq DNA polymerase (FIG. 7A) and its mutants (FIG. 7B-J) for double-stranded DNA (template-primer duplex) was analyzed by electrophoretic mobility shift assays (EMSA) as previously described (Lagunavicius et al. (2003) J. Mol. Biol. 326: 1051-1064) except that 1 nM of 24*/44 nt duplex (* indicates ³³P label in 5′-terminus of 24 nt oligonucleotide) formed by annealing of 5′-[…]-3′ (24 nt) and 5′-[…]-3′ (44 nt) and 0, 1, 2, 5, 10, 20, 50, 100, 200, 500, 1000 nM of the proteins were mixed in 1×TAE buffer (40 mM Tris-acetate, pH8.3 at 25° C.; 2 mM EDTA) supplemented with 10% glycerol and electrophoresis was performed in 12% PAAG. The gels were analyzed by Cyclone Storage Phosphor System and OptiQuant™ Image Analysis Software (Packard Instruments) and GraphPad Prism version 4.03 Software (GraphPad Software, Inc.) (FIG. 7).
(§2) Affinity of Taq DNA polymerase (FIG. 8A) and its mutants (FIG. 8B-G) for single-stranded DNA (primer) was analyzed as described in Example 7, except that 5′-labeled 24 nt oligonucleotide (5′-[…]) was used instead of 24*/44 nt duplex (FIG. 8).

[8] = biological target: Taq DNA polymerase (R536C/K540C/D610A/H784C)/(Y81F/G187A) (UniProt P19821 P19821:1-832, R536C,K540C,D610A,H784C,Y81F,G187A); test: as above; settings: tags: Fermentas
Protocol: as §1, §2

[9] = biological target: T3, Taq DNA polymerase N485S/R536C/K540C/H784C (UniProt P19821 P19821:1-832, N485S,R536C,K540C,H784C); test: EMSA; 1x TAE with 2 mM EDTA, pH 8.3, 10% glycerol; settings: tags: Fermentas; label: 5'-33P on 24 nt strand; 24 nt primer annealed to 44 nt template, 20 nt 5' template overhang
Protocol: as §1, §2

[10] = biological target: T4, Taq DNA polymerase (K540C/H784C)/R25S (UniProt P19821 P19821:1-832, K540C,H784C,R25S); test: EMSA; 1x TAE with 2 mM EDTA, pH 8.3, 10% glycerol; settings: tags: Fermentas; label: 5'-33P on 24 nt strand; 24 nt primer annealed to 44 nt template, 20 nt 5' template overhang
Protocol: as §1, §2

[11] = biological target: Taq DNA polymerase E491G/R536C/K540C/H784C (UniProt P19821 P19821:1-832, E491G,R536C,K540C,H784C); test: EMSA; 1x TAE with 2 mM EDTA, pH 8.3, 10% glycerol; settings: tags: Fermentas
Protocol: as §1, §2

[12] = biological target: T5, Taq DNA polymerase I532T/R536C/K540C/H784C (UniProt P19821 P19821:1-832, I532T,R536C,K540C,H784C); test: EMSA; 1x TAE with 2 mM EDTA, pH 8.3, 10% glycerol; settings: tags: Fermentas; label: 5'-33P on 24 nt strand; 24 nt primer annealed to 44 nt template, 20 nt 5' template overhang
Protocol: as §1, §2

[13] = biological target: Taq DNA polymerase (K540C/H784C)/Y81F (UniProt P19821 P19821:1-832, K540C,H784C,Y81F); test: EMSA; 1x TAE with 2 mM EDTA, pH 8.3, 10% glycerol; settings: tags: Fermentas
Protocol: as §1, §2

[14] = biological target: Taq DNA polymerase K540C/H784C (UniProt P19821 P19821:1-832, K540C,H784C); test: EMSA; 1x TAE with 2 mM EDTA, pH 8.3, 10% glycerol; settings: tags: Fermentas
Protocol: as §1, §2

[15] = biological target: T6, Taq DNA polymerase R536C/K540C/D610A/H784C (UniProt P19821 P19821:1-832, R536C,K540C,D610A,H784C); test: EMSA; 1x TAE with 2 mM EDTA, pH 8.3, 10% glycerol; settings: tags: Fermentas; label: 5'-33P on 24 nt strand; 24 nt primer annealed to 44 nt template, 20 nt 5' template overhang
Protocol: as §1, §2

[16] = biological target: T4, Taq DNA polymerase (K540C/H784C)/R25S; test: EMSA; 1x TAE with 2 mM EDTA, pH 8.3; above highest tested 1000 nM; settings: tags: Fermentas; label: 5'-33P
Protocol: as §1, §2

[17] = biological target: T5, Taq DNA polymerase …; test: as above; settings: tags: Fermentas; label: 5'-33P
Protocol: as §1, §2

[18] = biological target: T6, Taq DNA polymerase …; test: as above; settings: tags: Fermentas; label: 5'-33P
Protocol: as §1, §2

[19] = biological target: T3, Taq DNA polymerase …; test: EMSA; 1x TAE with 2 mM EDTA, pH 8.3; tighter than WT; settings: tags: Fermentas; label: 5'-33P
Taq DNA polymerase = Taq DNA polymerase (UniProt P19821 P19821:1-832); test: EMSA; 1x TAE with 2 mM EDTA, pH 8.3, 10% glycerol; settings: tags: recombinant, Fermentas; label: 5'-33P
Protocol: as §1, §2

[20] = label: 5'-33P on 24 nt strand, 24 nt primer annealed to 44 nt template, 20 nt 5' template overhang

T6 sequence (P19821 whole entry R536C/K540C/D610A/H784C, one chain of several): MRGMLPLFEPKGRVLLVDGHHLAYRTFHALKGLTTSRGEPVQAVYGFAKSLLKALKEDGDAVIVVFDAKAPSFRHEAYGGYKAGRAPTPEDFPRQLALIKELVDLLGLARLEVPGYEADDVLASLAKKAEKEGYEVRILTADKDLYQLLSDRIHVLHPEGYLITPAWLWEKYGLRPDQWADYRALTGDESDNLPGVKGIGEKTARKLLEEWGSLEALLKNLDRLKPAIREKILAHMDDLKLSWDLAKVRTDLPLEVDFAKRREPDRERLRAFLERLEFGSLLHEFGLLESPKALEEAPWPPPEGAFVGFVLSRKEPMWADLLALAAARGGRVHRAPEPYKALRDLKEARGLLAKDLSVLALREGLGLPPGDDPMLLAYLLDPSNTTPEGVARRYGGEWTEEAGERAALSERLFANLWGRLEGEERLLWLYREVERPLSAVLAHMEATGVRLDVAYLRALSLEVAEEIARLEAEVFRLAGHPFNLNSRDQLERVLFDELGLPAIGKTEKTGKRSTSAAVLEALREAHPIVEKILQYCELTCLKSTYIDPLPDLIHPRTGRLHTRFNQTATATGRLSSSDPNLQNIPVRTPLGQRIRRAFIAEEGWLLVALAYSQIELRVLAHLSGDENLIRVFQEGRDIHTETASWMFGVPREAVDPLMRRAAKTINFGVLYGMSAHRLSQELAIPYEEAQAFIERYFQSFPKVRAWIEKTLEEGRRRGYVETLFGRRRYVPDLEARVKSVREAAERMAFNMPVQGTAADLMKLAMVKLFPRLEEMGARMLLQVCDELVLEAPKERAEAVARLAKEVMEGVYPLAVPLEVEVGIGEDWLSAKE
T5 sequence (P19821 whole entry I532T/R536C/K540C/H784C, one chain of several): as the sequence (P19821 whole entry R536C/K540C/D610A/H784C, one chain of several) above, with I532T, A610D counted along it
Sequence of Taq DNA polymerase (I532T/R536C/K540C/H784C)/(R25S/Y81F/G187A) (P19821 whole entry R25S/Y81F/G187A/I532T/R536C/K540C/H784C, one chain of several): as the sequence (P19821 whole entry R536C/K540C/D610A/H784C, one chain of several) above, with R25S, Y81F, G187A, I532T, A610D counted along it
T4 sequence (P19821 whole entry R25S/K540C/H784C, one chain of several): as the sequence (P19821 whole entry R536C/K540C/D610A/H784C, one chain of several) above, with R25S, C536R, A610D counted along it
Sequence of Taq DNA polymerase K540C/H784C (P19821 whole entry K540C/H784C, one chain of several): as the sequence (P19821 whole entry R536C/K540C/D610A/H784C, one chain of several) above, with C536R, A610D counted along it
Sequence of Taq DNA polymerase (K540C/H784C)/Y81F (P19821 whole entry Y81F/K540C/H784C, one chain of several): as the sequence (P19821 whole entry R536C/K540C/D610A/H784C, one chain of several) above, with Y81F, C536R, A610D counted along it
Sequence of Taq DNA polymerase E491G/R536C/K540C/H784C (P19821 whole entry E491G/R536C/K540C/H784C, one chain of several): as the sequence (P19821 whole entry R536C/K540C/D610A/H784C, one chain of several) above, with E491G, A610D counted along it
Sequence of Taq DNA polymerase (R536C/K540C/D610A/H784C)/(Y81F/G187A) (P19821 whole entry Y81F/G187A/R536C/K540C/D610A/H784C, one chain of several): as the sequence (P19821 whole entry R536C/K540C/D610A/H784C, one chain of several) above, with Y81F, G187A counted along it
T3 sequence (P19821 whole entry N485S/R536C/K540C/H784C, one chain of several): as the sequence (P19821 whole entry R536C/K540C/D610A/H784C, one chain of several) above, with N485S, A610D counted along it
Sequence of Taq DNA polymerase (P19821 whole entry, one chain of several): as the sequence (P19821 whole entry R536C/K540C/D610A/H784C, one chain of several) above, with C536R, C540K, A610D, C784H counted along it

## TTTTAGCCGCTAGAGTCGACCTGC [24 nt primer]
[1]
  Kd: 310 nM
[2]
  Kd: 730 nM
[3]
  Kd: 2300 nM
[4]
  Kd: 440 nM
[5]
  Kd: 740 nM
[6]
  Kd: 52 nM

## TTTTAGCCGCTAGAGTCGACCTGC / GGAGACAAGCTTGTATGCCTGCAGGTCGACTCTAGCGGCTAAAA [24/44 nt template-primer duplex]
[1]
  Kd: 110 nM
[2]
  Kd: 240 nM
[3]
  Kd: 470 nM
[4]
  Kd: 190 nM
[5]
  Kd: 190 nM
[6]
  Kd: 2.8 nM

B1: 24/44 nt template-primer duplex (dsDNA)
DNA 1: TTTTAGCCGCTAGAGTCGACCTGC
DNA 2: GGAGACAAGCTTGTATGCCTGCAGGTCGACTCTAGCGGCTAAAA
[7]; [20]
  Kd: 16000 nM
[8]; [20]
  Kd: 2200 nM
[9]
  Kd: 32 nM
[10]
  Kd: 56 nM
[11]; [20]
  Kd: 200 nM
[12]
  Kd: 990 nM
[13]; [20]
  Kd: 28 nM
[14]; [20]
  Kd: 25 nM
[15]
  Kd: 320 nM

## TTTTAGCCGCTAGAGTCGACCTGC (ssDNA) [24 nt primer]
[7]; label: 5'-33P
  Kd: 7700 nM
[16]
  Kd: 2700 nM
[8]; label: 5'-33P
  Kd: 3700 nM
[17]
  Kd: 5200 nM
[18]
  Kd: 2000 nM
[19]
  Kd: 23 nM
[11]; label: 5'-33P
  Kd: 530 nM
[13]; label: 5'-33P
  Kd: 350 nM
[14]; label: 5'-33P
  Kd: 460 nM
Taq DNA polymerase
  Kd: 79 nM
